Assay results: patent publication US20230287402A1 (University of Washington, published 2023)

Tests used:
[1] = target: T1, B(c)GFP, cyclic B component with C-terminal GFP (Di13BLB_C_GFP); experiment: quantitative fluorescence microscopy of preformed arrays
[2] = target: T1, B(c)GFP, cyclic B component with …; experiment: calibrated microscope, corrected for FRET between GFP and mScarlet
[3] = target: T1, B(c)GFP, cyclic B component with …; experiment: stepwise array assembly on NIH/3T3 cells

Binder | mScarlet/GFP fluorescence ratio (arrays formed in vitro) [1] | A/B ratio of arrays generated on cells [2] | binding result [3]
A(d)mScarlet, dihedral A component with N-terminal mScarlet (A_n_mScarlet) (designed binder, also called AmScarlet) NKIHGSHHHHHHGSTSGSAMVSKGEAVIKEFMRFKVHMEGSMNGHEFEIEGEGEGRPYEGTQTAKLKVTKGGPLPFSWDILSPQFMYGSRAFTKHPADIPDYYKQSFPEGFKWERVMNFEDGGAVTVTQDTSLEDGTLIYKVKLRGTNFPPDGPVMQKKTMGWEASTERLYPEDGVLKGDIKMALRLKDGGRYLADFKTTYKAKKPVQMPGAYNVDRKLDITSHNEDYTVVEQYERSEGRHSTGGMDELYKGGSGGSLALVATGNDTTTKPDLYYLKNSEAINSLALLPPPPAVGSIAFLNDQAMYEQGRLLRNTERGKLAAEDANLSSGGVANAFSGAFGSPITEKDAPALHKLLTNMIEDAGDLATRSAKDHYMRIRPFAFYGVSTCNTTEQDKLSKNGSYPSGHTSIGWATALVLAEINPQRQNEILKRGYELGQSRVICGYHWQSDVDAARVVGSAVVATLHTNPEFQAQLIKAKIEFKQHQK | 1.45 | 0.99 | –
A component of design #13 (D3 homooligomer, designed from 1d2t) (designed binder, also called component A; dihedral A) MGHHHHHHGGLALVATGNDTTTKPDLYYLKNSEAINSLALLPPPPAVGSIAFLNDQAMYEQGRLLRNTERGKLAAEDANLSSGGVANAFSGAFGSPITEKDAPALHKLLTNMIEDAGDLATRSAKDHYMRIRPFAFYGVSTCNTTEQDKLSKNGSYPSGHTSIGWATALVLAEINPQRQNEILKRGYELGQSRVICGYHWQSDVDAARVVGSAVVATLHTNPEFQAQLIKAKIEFKQHQKEL | – | – | binds
